Test results published in publication PMC11497264, “SARS‐CoV‐2 Spike Protein‐Derived Cyclic Peptides as Modulators of Spike Interaction with GRP78” (Chembiochem, 2024).
Bridge positions count the residues as written; N and C are the ends.

B1: LCP W, loop-derived cyclic peptide based on spike residues 480-488 of the Wuhan strain (peptide)
peptide: H-CNGVEGFNC-NH2
modifications: disulfide 1-9
SMILES: CC(C)[C@@H]1NC(=O)CNC(=O)[C@H](CC(N)=O)NC(=O)[C@@H](N)CSSC[C@@H](C(N)=O)NC(=O)[C@H](CC(N)=O)NC(=O)[C@H](Cc2ccccc2)NC(=O)CNC(=O)[C@H](CCC(=O)O)NC1=O
notes: also called Wuhan loop peptide; Wuhan peptide
B2: LCP O, loop-derived cyclic peptide based on spike residues 480-488 of the Omicron strain (peptide)
peptide: H-CNGVAGFNC-NH2
modifications: disulfide 1-9
SMILES: CC(C)[C@@H]1NC(=O)CNC(=O)[C@H](CC(N)=O)NC(=O)[C@@H](N)CSSC[C@@H](C(N)=O)NC(=O)[C@H](CC(N)=O)NC(=O)[C@H](Cc2ccccc2)NC(=O)CNC(=O)[C@H](C)NC1=O
notes: also called Omicron loop peptide; Omicron peptide

Molecular target: T1, human glucose-regulated protein GRP78 (human, UniProt P11021 19-654)
T1 construct: also called heat shock protein A5; HSPA5; source: Escherichia coli, recombinant; bought: Abcam
T1 sequence (P11021 19-654): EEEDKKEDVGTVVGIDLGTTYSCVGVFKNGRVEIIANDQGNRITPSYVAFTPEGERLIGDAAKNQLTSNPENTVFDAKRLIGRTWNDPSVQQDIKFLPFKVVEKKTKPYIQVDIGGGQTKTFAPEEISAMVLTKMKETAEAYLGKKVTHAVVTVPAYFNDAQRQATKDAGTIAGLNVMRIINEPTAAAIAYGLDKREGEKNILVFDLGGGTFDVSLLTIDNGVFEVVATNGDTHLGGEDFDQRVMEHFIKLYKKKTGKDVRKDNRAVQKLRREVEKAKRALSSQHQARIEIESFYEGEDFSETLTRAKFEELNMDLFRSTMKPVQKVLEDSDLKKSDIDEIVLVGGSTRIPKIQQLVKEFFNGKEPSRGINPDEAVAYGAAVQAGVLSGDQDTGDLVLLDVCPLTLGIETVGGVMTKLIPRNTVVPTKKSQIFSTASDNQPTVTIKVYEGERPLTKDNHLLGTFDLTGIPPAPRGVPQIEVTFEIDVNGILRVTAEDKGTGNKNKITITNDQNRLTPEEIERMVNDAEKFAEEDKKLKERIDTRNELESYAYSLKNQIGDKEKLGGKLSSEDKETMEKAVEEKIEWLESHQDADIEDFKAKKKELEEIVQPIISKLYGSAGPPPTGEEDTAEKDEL
Test: SPR
Details: both partners purified

Binder	IC50	Kd
B1	763 nM	–
B2	693 nM	2000 nM
